Target: EGFR co-transfected into Q293 cells (UniProt P00533)
Test: co-IP

Substance | amount in the anti-EGFR immunoprecipitate, normalized to wild type TROY
TROY CRD3 (from UniProt Q9NS68 30-423) (receptor) | 0.83
TROY CRD2 (from UniProt Q9NS68 30-423) (receptor) | 0.43
